# Measurements: paper PMC12599243, “Mechanistic insights into DNA binding by BD1 of the TAF1 tandem bromodomain module”
# T1: TAF1 tandem bromodomain (BD1-BD2) (human, UniProt P21675 1402-1656)
# T1 sequence: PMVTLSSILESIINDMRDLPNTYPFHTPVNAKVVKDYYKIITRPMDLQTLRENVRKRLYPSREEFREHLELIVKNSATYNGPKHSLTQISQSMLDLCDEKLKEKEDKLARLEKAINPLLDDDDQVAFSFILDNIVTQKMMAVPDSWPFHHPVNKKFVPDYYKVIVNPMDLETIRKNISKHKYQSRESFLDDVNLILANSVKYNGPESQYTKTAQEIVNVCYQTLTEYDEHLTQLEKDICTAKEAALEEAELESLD
# What was measured:
# [1] = molecular target: T1, TAF1 tandem bromodomain (BD1-BD2); assay: EMSA; settings: EMSA: 50 mM HEPES pH 7.5, 100 mM NaCl, 35 nM DNA, 1 h at 4 C, 6% native PAGE, 0.5x TBE, 100 V on ice. HeLa mononucleosome pulldown (undefined DNA) not listed.
# [2] = molecular target: Histone H4 H4K5acK12ac peptide (Homo sapiens) (UniProt P62805); settings: cited from earlier work
# [3] = molecular target: Histone H4 H4K8acK16ac peptide (Homo sapiens) (UniProt P62805); settings: cited from earlier work
# [4] = molecular target: TAF1 tandem bromodomain BD1 triple mutant (R1435S/K1436S/R1437S), 6xHis-tagged (human); assay: pull-down; 20 μg hyperacetylated HeLa mononucleosomes (cells treated with trichostatin A) mixed with 50 μM 6xHis-tagged TAF1 tandem bromodomain or its mutant, 4°C, 60 min; captured on Ni-NTA agarose; washed with 50 mM HEPES pH 7.5, 500 mM KCl, 2 mM EDTA, 0.1% Tween-20; eluted with 500 mM imidazole; western blot with anti-H4K5ac and anti-H4K8ac
# [5] = molecular target: T1, TAF1 tandem bromodomain (BD1-BD2); assay: EMSA; no peptide; EMSA: 50 mM HEPES pH 7.5, 100 mM NaCl, 35 nM DNA, 1 h at 4 C; 6% native PAGE, 0.5x TBE, 100 V on ice. HeLa mononucleosome pulldown (undefined DNA) not listed.; settings: protein: recombinant; tags: C-terminal 6xHis; label: none (SYBR Gold stain); blunt
molecule,measurement,setting,value
147 bp Widom 601 DNA,Kd,[1]; 320 uM H4(1-15)K5acK12ac peptide,19.7 µM
same,Kd,[1]; no peptide,16.8 µM
TAF1 tandem bromodomain (from UniProt P21675),Kd,[2],1.4 µM
same,Kd,[3],5.3 µM
acetylated mononucleosomes isolated from HeLa cells (from UniProt P62805 1-103) (complex),fold decrease in binding against wildtype,[4],1.5 fold
147 bp GC-rich 601 DNA (AT-tracts mutated to GC) (dsDNA) DNA 1: CTGGAGAATCCCGGTGCCGAGGCCGCTCGACTGGTCGTAGACAGCTCTAGCACCGCTCAGACGCACGTACGCGCTGTCCCCCGCGTTTCAGCCGCCAAGGGGACTGCTCCCTAGTCTCCAGGCACGTGTCAGATGCGTACATCCTGT DNA 2: ACAGGATGTACGCATCTGACACGTGCCTGGAGACTAGGGAGCAGTCCCCTTGGCGGCTGAAACGCGGGGGACAGCGCGTACGTGCGTCTGAGCGGTGCTAGAGCTGTCTACGACCAGTCGAGCGGCCTCGGCACCGGGATTCTCCAG,Kd,[5],34.2 ± 5.4 µM
